Measurements reported in US20260055186A1 (REPERTOIRE IMMUNE MEDICINES, published 2026).
Numbering of substitutions follows the chain as printed.

B1: humanized 02A01-VH2-VK3 (antibody, human IgG1, V domains shown)
VH: EVQLVQSGAEVKKPGATLKISCKASGYTFTDFTMHWVQQAPGKGLEWIGLVNPNNGGNIYNQNFKGRATLTVDTSTSTAYMELSSLRSEDTSVYYCGRVPLYTSHGMDYWGQGTLVTVSS
VL: EIVLTQSPATLSLSPGERATISCRASESVDSYDINSMHWYQQKPGQAPRLLIYRASHLQSGIPARFSGSGSRTDFTLTISSLEPEDFATYYCQQSNEDPLTFGQGTKLEIK
notes: human IgG1 format; also called 02-VH2-VK3
B2: humanized 02A01-VH1-VK4 (antibody, human IgG1, V domains shown)
VH: B1 VH with A9P, K12V, Q38K, G44S
VL: B1 VL with L13V, R54D, H57N, L58R, Q59A, S60T, L82V
notes: human IgG1 format; also called 02-VH1-VK4
B3: humanized 02A01-VH6-VK2 (antibody, human IgG1, V domains shown)
VH: B1 VH with L18V, N61A, Q62E, N63K, K65Q, A68V, S92A
VL: B1 VL with L13V, L82V
notes: human IgG1 format; also called 02-VH6/VK2
B4: humanized 02A01-VH4-VK1 (antibody, human IgG1, V domains shown)
VH: B1 VH with L18V, N61A, Q62E, N63K, K65Q, S92A
VL: B1 VL with L13V, A47P, L82V
notes: human IgG1 format; also called 02-VH4-VK1
B5: humanized 02A01-VH6-VK3 (antibody, human IgG1, V domains shown)
VH: B1 VH with L18V, N61A, Q62E, N63K, K65Q, A68V, S92A
VL: B1 VL
notes: human IgG1 format; also called 02-VH6/VK3
B6: humanized 02A01-VH6-VK1 (antibody, human IgG1, V domains shown)
VH: B1 VH with L18V, N61A, Q62E, N63K, K65Q, A68V, S92A
VL: B1 VL with L13V, A47P, L82V
notes: human IgG1 format; also called 02-VH6/VK1
B7: humanized 02A01-VH4-VK3 (antibody, human IgG1, V domains shown)
VH: B1 VH with L18V, N61A, Q62E, N63K, K65Q, S92A
VL: B1 VL
notes: human IgG1 format; also called 02-VH4/VK3
B8: humanized 02A01-VH3-VK4 (antibody, human IgG1, V domains shown)
VH: B1 VH with N61A, Q62E, N63K, K65Q
VL: B1 VL with L13V, R54D, H57N, L58R, Q59A, S60T, L82V
notes: human IgG1 format; also called 02-VH3-VK4
B9: humanized 02A01-VH2-VK4 (antibody, human IgG1, V domains shown)
VH: B1 VH
VL: B1 VL with L13V, R54D, H57N, L58R, Q59A, S60T, L82V
notes: human IgG1 format; also called 02-VH2-VK4
B10: humanized 02A01-VH3-VK3 (antibody, human IgG1, V domains shown)
VH: B1 VH with N61A, Q62E, N63K, K65Q
VL: B1 VL
notes: human IgG1 format; also called 02-VH3/VK3
B11: humanized 02A01-VH6-VK4 (antibody, human IgG1, V domains shown)
VH: B1 VH with L18V, N61A, Q62E, N63K, K65Q, A68V, S92A
VL: B1 VL with L13V, R54D, H57N, L58R, Q59A, S60T, L82V
notes: human IgG1 format; also called 02-VH6-VK4
B12: humanized 02A01-VH4-VK2 (antibody, human IgG1, V domains shown)
VH: B1 VH with L18V, N61A, Q62E, N63K, K65Q, S92A
VL: B1 VL with L13V, L82V
notes: human IgG1 format; also called 02-VH4/VK2
B13: humanized 02A01-VH4-VK4 (antibody, human IgG1, V domains shown)
VH: B1 VH with L18V, N61A, Q62E, N63K, K65Q, S92A
VL: B1 VL with L13V, R54D, H57N, L58R, Q59A, S60T, L82V
notes: human IgG1 format; also called 02-VH4-VK4
B14: 02A01-IgG-IL12 (HC) (other)
VH: EVQLQQSGPELVKPGASLKISCKASGYTFTDFTMHWVKQSHGKSLEWIGLVNPNNGGNIYNQNFKGKATLTVDTSSSTAYMELRSLTSEDSSVYYCGRVPLYTSHGMDYWGQGTSVTVSS
VL: DIVLTQSPAFLAVSLGQRATISCRASESVDSYDINSMHWYQQKPGQPPKLLIYRASHLQSGIPARFSGSGSRTDFTLTINFVEADDVATYYCQQSNEDPLTFGAGTKLELK
B15: 02A01-Fab-Fc-IL12 (LC) (other)
VH: B14 VH
VL: B14 VL
B16: 02A01-Fab-IL12 (LC) (other)
VH: B14 VH
VL: B14 VL
B17: 03A01-IgG-IL12 (HC) (other)
VH: DVQFQESGPGLVKPSQSLSLTCTVTGYSITSDFAWNWIRQFPGNELEWMGYISYSGDTNYNPSLRSRISITRDTSKNQFFLQLDSVTTEDTATYYCTIRGYYTDSAFVFWGQGTLVTVSA
VL: DIQMTQSSSYLSVSLGGRVTITCKASDHINNWLAWYQQKPGNAPRLLISGATSLETGVPSRFTGSGSGLDYTLSITSLQTEDVATYYCQQYWNSPFTFGSGTKLEIK
B18: 03A01-Fab-IL12 (LC) (other)
VH: B17 VH
VL: B17 VL
B19: 03A01-Fab-Fc-IL12 (LC) (other)
VH: B17 VH
VL: B17 VL

What follows are binders tested against T1, human CD8 on human T cells (human, UniProt P01732 22-235) (assay: flow cytometry on human CD8+ T cells, titration, apparent KD).
T1 construct: whole, on cells; the antibodies were raised against human CD8 alpha; also called CD8 on human CD8+ T cells; hCD8
T1 sequence (P01732 22-235): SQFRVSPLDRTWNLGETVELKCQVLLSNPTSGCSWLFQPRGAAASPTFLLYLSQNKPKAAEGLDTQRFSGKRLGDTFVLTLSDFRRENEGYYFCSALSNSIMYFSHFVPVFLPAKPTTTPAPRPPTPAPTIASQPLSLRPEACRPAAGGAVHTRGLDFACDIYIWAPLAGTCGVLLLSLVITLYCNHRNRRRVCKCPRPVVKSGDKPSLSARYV
Procedure: (§1) The 24 humanized 02A01-derived anti-CD8 antibodies (excluding 02A01-VK3(D30E/N35Q)) were screened for their ability to bind human CD8 by evaluating binding to CD8+ T cells. The non-humanized parent (“02-Parent”) and the non-humanized parent comprising a heavy chain M39L liability mutation (“02-Parent-VH-M39L”) were used as controls. […] Cells were washed with 1×phosphate buffered saline (PBS) containing 1 mg/mL bovine serum albumin (PBS/BSA) and then stained with a 1:100 dilution of DyLight650-conjugated anti-human IgG H+L polyclonal antibody (ThermoFisher cat. no. Sa5-10129) in PBS/BSA. Following a 20-30 min incubation at 4° C., the cells were washed once with PBS/BSA, and then resuspended in PBS/BSA for analysis on a FACSCelesta using Diva software (BD Biosciences). The resulting data were analyzed using FlowJo. Data were quantified and reported as Max fluorescence intensity (MFI) of human IgG-Fc. […] Complete replacement of the HCDR1 (antibodies comprising VH5) eliminated binding to the CD8+ T cells.
(§2) Binding to human CD8+ T cells was tested at 7 serial 5-fold dilutions of each tested humanized 02A01 variant (from 50 nM to 3.2 pM). The resulting data were analyzed using FlowJo.

Row | Kd [nM] | Binder
1 | 0.067 | B1
2 | 0.051 | B2
3 | 0.096 | B3
4 | 0.049 | B4
5 | 0.089 | B5
6 | 0.058 | B6
7 | 0.089 | B7
8 | 0.066 | B8
9 | 0.051 | B9
10 | 0.09 | B10
11 | 0.064 | B11
12 | 0.065 | B12
13 | 0.059 | B13

The binders below were run against T2, human CD8α/β (human, UniProt P01732 22-182; P10966 22-170) (assay: SPR, antibody captured on Protein A chip, hCD8α/β as analyte).
T2 construct: Soluble heterodimer used in SPR and in the Carterra binning (there printed only as CD8α/β); also called hCD8α/β
T2 sequence (P01732 22-182, chain 1 of 2): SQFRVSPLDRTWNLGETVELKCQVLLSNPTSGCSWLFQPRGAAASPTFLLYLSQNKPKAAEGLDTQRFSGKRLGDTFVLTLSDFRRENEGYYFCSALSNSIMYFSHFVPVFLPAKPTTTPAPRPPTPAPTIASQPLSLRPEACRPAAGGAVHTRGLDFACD
T2 sequence (P10966 22-170, chain 2 of 2): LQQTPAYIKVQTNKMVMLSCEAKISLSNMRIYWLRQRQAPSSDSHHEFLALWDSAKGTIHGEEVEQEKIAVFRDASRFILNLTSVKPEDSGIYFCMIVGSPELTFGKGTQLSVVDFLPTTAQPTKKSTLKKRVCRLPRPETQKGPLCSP
Procedure: (§3) The binding affinities of six of the humanized anti-CD8 antibodies to human CD8 were also determined by surface plasmon resonance (SPR). Briefly, equilibrium dissociation constants for human CD8α/β were determined using a real-time SPR biosensor using a Protein A Sensor Chip (Cytiva) to capture purified anti-CD8 monoclonal antibodies at a concentration of 0.5 nM. SPR binding studies were performed in a buffer composed of Phosphate buffered saline, pH 7.2 containing 0.05% v/v Surfactant P20 (PBS-P20 buffer). Different concentrations of hCD8α/β prepared in PBS-P20 running buffer (ranging from 500 nM to 7.8 nM, 2-fold dilutions) were injected over the anti-CD8 monoclonal antibody captured surface. Association of hCD8α/β to the captured monoclonal antibody was monitored for 400 seconds and the dissociation of hCD8α/β in PBS-P20 running buffer was monitored for 600 sec. All of the binding kinetics experiments were performed at 25° C. Kinetic association (kₐ) and dissociation (kd) rate constants were determined by fitting the real-time sensorgrams to a 1:1 binding model using Scrubber 2.0c curve fitting software.

Row | Fold Change to Parental Calculated KD [fold] | Binder
14 | 1.79 | B3
15 | 2.12 | B5
16 | 1.71 | B6
17 | 2.13 | B7
18 | 2.37 | B10
19 | 2.1 | B12

Each binder was assayed against T1, human CD8 on human T cells (assay: flow cytometry on human CD8+ T cells, titration).
Procedure: as §1, §2

Row | Fold Change to Parental Apparent KD [fold] | Maximum CD8+ T cell Binding (MFI) | Binder
20 | 1.18 | 2880 | B1
21 | 0.89 | 2050 | B2
22 | 1.68 | 2770 | B3
23 | 0.86 | 2810 | B4
24 | 1.51 | 2540 | B5
25 | 1.02 | 2620 | B6
26 | 1.56 | 2620 | B7
27 | 1.16 | 1560 | B8
28 | 0.89 | 2040 | B9
29 | 1.58 | 2540 | B10
30 | 1.12 | 1690 | B11
31 | 1.14 | 2680 | B12
32 | 1.04 | 1640 | B13

The binders below were run against T1, human CD8 on human T cells (assay: cell-based or functional assay).

Row | EC50 of pSTAT4 signaling in human CD8+ T cells [pM] | Binder
33 | 3.03 | B14
34 | 2.11 | B15
35 | 1.74 | B16
36 | 15.7 | B17
37 | 11.1 | B18
38 | 13.4 | B19

What follows are binders tested against T2, human CD8α/β (assay: SPR, antibody captured on Protein A chip, hCD8α/β as analyte, 1:1 fit).
Procedure: as §3

Row | Kd [nM] | Binder
39 | 16.6 | B3
40 | 19.6 | B5
41 | 15.9 | B6
42 | 19.8 | B7
43 | 22 | B10
44 | 19.5 | B12
